The assay addresses HLA-DR (human). The assay is described as follows: flow cytometry on Raji cells, APC mouse anti-human IgG (FIG. 21B). (In flow cytometry, cells or beads pass a laser one at a time.)

B1: huLym-1-B antibody (antibody, human IgG1, V domains shown)
VH: EVQLVESGGGLVQPGRSLRLTCTASGFSLTSYGVHWVRQPPGKGLEWLAVIWSDGSTTYNSALKSRLTISKDNSKSQVYLQMNSLRAEDTAVYYCARHYGSTLAFASWGQGTLVTVSS
VL: DIQMTQSPSSLSASVGDRVTITCRASVNIYSYLAWYQQKPGKAPNLLIYNAKILAEGVPSRFSGSGSGTDFTLTISSLQPEDFASYYCQHHYGTFTFGQGTKVEIK
B1: the fold higher ED50 than chLym-1 was 2 fold.
